Among the data in a protein production outcome set (Wang et al. 2014) are protein production values, retold here.

A short description of the data set: label from the status in PepcDB records.
Regarding “MPPNTSFRLAALAVTVSGLLFSSSTLMAAETAETADLVLRNGNIYTVNQGQPWAEAVAVRDGRYVFIGSNAQAAEFIGPKTQVVDLNGSMAMPGINDVHAHPLDGGYEDIYSCNFSQKSSLDDILSQVSECAQKAGPGEWVIGSAWGSPRMAELSTTEALAKLDKVSNGRPVILRDDSYHNRWINSEAMRLAAITAQSVSPAGGVIVKDAKTGEPTGLLQEFPAFQHVQSLVPVRTEEQRLTSGRGATKTMVSLGITGVQEAVSSEVNLRIWSKIDRAEGLPLRIIGSIVSTPLLDEGAAGLELVARRDVYRTTNFFPDRFKFVLDGVPPAHTAKLIEPYLPTQAHGDHYHGDTHYTTEQVVEILSKLDKQGISTKLHAAGDGSLRLALDAVEQVRKINGPNGPMHQIAHTHLISPQDMPRFAQLRVAADLSPMLWFPSDMTNASVVTIGEERMKDFVPTVKLLRSGAVVAGGSDWPAGGPTPSPWIGIEGLVTRQNPLGDAPGTLAPEEAVDLPEAIRIYTINSAKAMGIEKETGSVELGKSADLIVLDRHLFNVPIKQVHRANVVKTYFKGQLVHSAPEKS”, the protein production result is listed as “failed”. For “MPPTQAESVIRSIIREIGQECAAHGEIVSETLIAFMVKAVVLDPSNGFNMDRTLMKSDVQNLVKLCMTRLLDTKNPSLDTIKMQVYFDMNYTNRVEFLEEHHRVLESRLGSVTREITDNRACAKEELESLYRKIISYVLLRSGLGSPTDIKTVREVTAALQSVFPQAELGTFLTLSKKDKERQLKELTMIVTGIRLFNRDCGKGGEGIDDLPAVLHVAIPATMQHIDYQLETARSQVYRYTAILEKAANDPLMRAELQPYMLKEALYNIRQYEVFLQIILSDIITGAQEVEMMTKQLGAHLEQLKMTIKSKIAVPTSQVFPIFIALSTLWTSLQDETIVVGVLSNLFTHIQPFLGAHELYFPERVMQCHLNGATVKTDVCRMKEHMEDRVNVADFRKLEWLFPETTANFDKLLIQYRGFCAYTFAATDGLLLPGNPAIGILKYKEKYYTFNSKDAAYSFAENPEHYIDIVREKAKKNTELIQLLELHQQFETFIPYSQMRDADKHYIKPITKCESSTQTNTHILPPTIVRSYEWNEWELRRKAIKLANLRQKVTHSVQTDLSHLRRENCSQVYPPKDTSTQSMREDSTGVPRPQIYLAGLRGGKSEITDEVKVNLTRDVDET”, the protein production entry was “failed”. In the case of “MPQGCDRPSHGLRLADEQGRCQIKFVASDSPAEQAGLMIGDEIVALNGLRVSADNFSRRLATYQAGQVLELTIFHDDQLQSFSLTLAEPQPQSYNLRPAATVTSLEHHHHHH”, the protein production entry is reported as “failed”. Take “MPQGKWFRFGYGIVLVLLIIYLGSLVDWIFRPIVVFVQTLFAPVIIAGILYYLFRPIVGLLSKKMNRGLSILILFLMIIGAFTAFSLIVGPELQRQFQSLYNNLPTLINQVRDTFIALQSNELFNRFQESETFQPEEMISRFVNSLNDIIGTIGANITGFIGALANFFIILVLVPFILFYLLKEGEKLPVQLLKLFNKKQQHEGRLILADMDKMLSSYIQGQIIVSFCVGILCYIAYLIIGLDYALILALVAMFTNVIPFVGPWIGTFPAVIVAFIDSPLTALIVVIVVVVIQQIESNLISPQVMGKKLAIHPITIIFILLVAGRFAGVVGMLLAVPTYAVGKVIVTHSYRLWKLRKQPVE”: the protein production result is listed as “failed”. As for “MPQSAPPNTRQAVLWNDVSGKAWVEMQPILDEILAPFERLVVDAGYPREGGNVLDIGCGAGATTLAMARRVGNDGNCVGLDISQPLVALATERTKLGEVANASFEVGDAQTYAFESGHFDAAISRFGVMFFDDPMAAFTNIRKAVRRRGKLAFVAWRSPLENDFMTTAVRAAAPFLPPAPAPDPDAPGQFAFADGAKVRRILEASGWASIEVEQADVPCRIAQRDLMAYATRLGPLGAALREVDRATAERITTVLPAAFAPFVDDGEARFNAACWLVTALA”, the entry is “failed”; as for “MPQVKLKEGEPVDVAIRRFKRSCEKAGVLADVRKREFYEKPTQERKRKKAAAVKRYQKKLARESVRTTRLY”, “failed”; as for “MPRKKKTVEDPALTRALKVMEAGALPDADLAAEFATLAESYGKLLRKFNKTLVISDAYEAQHQAMAKKLEEATWKYRQLKDVALPICMYCKKIRSDDDYWQRLETFFCNHADIMFSHGICPDCIKTAYEKMGMNRRAMPLPDAAVTGQPAASPERQPVEDDALREMRALVRRSAFDGSPVAPEVEQFVEKYGKLLRRFSKIVSISDSYQSQLRELNARLELMARTDLLTGLANHWEMVMRLAAEQSRSERNGKVFSIVLADIDHFKKVNDTHGHQAGDRVIRGIADTLRTNIRREDICSRWGGEEFLIILPEADLPRAGAVAAKLLAKVRNTVVPWDGRDIRVTVSIGYGTSEPGMSVDELIRRVDDALYSAKAAGRDRFAAAGSRADV”, “failed”. As to “MPRLPRPPGSSTLRPGAVALGRPDPGPDLNSPEGLIRAARDWLGAGDDQRARLALDRALALRPRAAEALLLRGLVDQRRGDLAAAAEWFRRAIRARKDFADAHLNLGSCLIGLGQTEEALRQFGRAVALAPGMALAHLNLAQALLDQGDLGRARSAIDRARALAPDALPILLARARILAAQEDYEAAGAAWEDCVARAPGDVLVLNDAANFLLEDNRVEDSLALYRRAVALAPTSQEVRKNLIRALMTTGALDEAEAEAVGWLGTQGEDPRFRRLLGDVLVRAGRFPEARSAYVAAWDALPEDDNIPLGLTATGKMKSGEALGDRILERWTAQGAAGVVSADIAYAAGKVLDDRQDYDGAFAAFAQANRLKAADHPFDADAHDRFVEAVSTVFTPALFERFAGLGSPSETPVLVVGLPRSGTTLVEQIIASHPQAAGAGELTHVSRFEHSLPWRVGEAGRRGYPACVAGLDGAILDRFTAHYLHELTRIGPKARRVVDKLPNNFLRLGLFALAFPKARIIHCRRDLVDTCLSLYFQSFAGGHEYRHDLVSLGRYARAYLAMMAHWRRVLPLPMLEVDYADVVADQEKASRTMLEFLGLAWDEVVLRFHKREATVATASRWQVRQPIYATSVARWRRYEQHLSPLLLSLEGKKPSKG”, the protein production result is given as “failed”. Regarding “MPRRFRQANARLTILSGGIPYLTNTMTLPDRFQQADAVPDDLQQLEARLAEAEDILLRDSPQAEATAREVLAGATAAGCQSLALRSRTVLGRSLAHQKRNEQATELLESVVAESRSAKMPELLVHAWLGLGLAHLNERRMARGLQAYLEALKICESLNAPELSLRVLTNLASAYAKLEQYDTAQPYLTEAHDTARQLGQPFDLMITSLNLACVCQLSGGTGAALTLIEEALRHAKTVASPRYLKSVLFHFSQLLLDLDRLSEALTYCEQGLNTDSGFGTATPQCELQVTHGEILYGLGRPAEARPALEAGLRAAQDLRLNDAEGRARRCYAQLLEDQDDYQGALAQVRALAQLEHDLREQLAAVNLQLEAERLRSETLAEKRRLKEEGRTQQRLAAQLRHDALTGLPNRLALHEALGQQVAADSAPFALLCLDLDHFKTVNHTLGQPAGDALLLYIGERVQAAVGEQGQTFRRGGNEFVVLLPAVRAAPDALTIAQTLLDTINEPLLLDGQALVVTASIGLALFPEDGRDSLTLQKNADLALHAAKQEGGQAQRYRNALSQAANERLELTQALRSGIGNGELVLHYQPIVEVRSGKTVAVEALVRWQHPRLGLLSPDRFIGLAEDNGLIVPLGRWVLNTALRQLAAWREHWPELRVSVNMAPRQLQQPGSCQEIRDALRAYALPPDALELEITEQTICDEEALEPFLPLIREGLRLAIDDFGTGYSSLSRLYRLPAQILKLDRSLIQDLSADNATDGPLVSALIAFAQRFGMQVTAEGIETAEQLHLLRQ”, the protein production entry is “failed”. With “MPRRKTKKREEGLSAIDLANEEMGYVLSLIERTDQSLFLTGKAGTGKSTLLRHICATTHKKFVVLAPTGLAALNVGGQTLHSFFKLPLRPIPPNDPDLSTRDRRVFDVFRYTNEHKKLIRSLDLIIIDEVSMVRADVIDAIDKLLGIYRGRQERPFGGVQMLFVGDLYQLEPVVTADDADILKRFYPNPFFFSSEALRATPPVTVELTKVYRQTEQAFVQILDRIRSGRLTEQDLQDINKCVNRHYEPPKDEPVITLATKRRHVSYINERQLEQLQGDPVTLYGTIEGDFPSSSLPTEEELTLKQDAQVIFVSNDKDRRWVNGTLGIVAGFDQESETIDVCLSTGEVVTVEPCIWDNKRFSYNEQANKVEEEVLGRFVQYPLKLAWAITVHKSQGLTFDRVIIDFSEGTFAGGQAYVALSRCRSLEGMVLRAPLAGRDVIVRREIIDFYSRANDLEIINGSLLRAEAEREYAQALRLWNARHYTEAIGAFSQALARKNELDDPLFRRLLVSKLFEMEYARRREEELRRELAEQREVMRRLAKEYVLMGNDCITEAHDAHAAIRCYDKALTLYPDYVEALVRKGKTLAGLNEITTSLSTLNQAIAIAPMDFTARFTLGQVLEKFAYYEEALDAYRQADGLNSQSRSLLKRLIALCEELDEEDEANLYRIRLRKNRDQTGHK”, the protein production entry was “failed”. On to “MPRWLIQHSPNTLTPEEKSHLAQQITQAYVGFGLPAFYVQVHFIEQPAGTSFIGGEQHPNFVALTIYHLARTMTSDEQRQGFLKRIDAFLTPMFEPKGIDWEYFVTEAPRDLWKINGLAPPAAGSEEEKVWVRENRPVRF”, for which the protein production result was “not failed”. As for “MPRWLPRAMVLALALIAAFQLGSWAFHQLTGLLINVLIAFFLALAIEPAVSWMAGRGMRRGFATFLVFLAVLIAAAGFVTLLGSMLAGQIVKMVEEFPDYLDSVINWVNGHFHTELRRVDIQEGLLRSDWLRNYVQNSATGVLDVSAQVLGGLFQLLTVLLFSFYFAADGPRLRRGLCSVLPPARQAEVLRAWEIAVDKTGGYLYSRGLMALVSGVAHYILLEILEVPYAPALAVWVGLVSQFIPTIGTYLAGALPMLIAFTVNPWYALWVLVFVVIYQQFENYVLQPKLTSKTVDIHPAVAFGSVIAGTALLGAVGALIAIPAVATLQAFLGAYVKRYDVTDDPRVHGRRGRRSVSGTSTRLRKLWTRRPEPGLEGPERTEGPERTEGGEGTDGTRDGGSS”, the entry is “failed”. As for “MPSAMNERTVAELEKLLRYIAANLKQRGREILTNYPITPPQFVALQWLLEEGDLTVGELSNKMYLACSTTTDLVDRMERNGLVARVRDEHDRRVVRIRLLEKGERIIEEVIEKRQRDLANVLESFSDEEIVVFERCLRKLHQEMTKE”, the protein production entry is “not failed”. For “MPSDSLRVGVLTGGGDCPGINAALRAVTKSLTLQHDAEVLGFLDGFRGVVDRNVEPLHYRDVSGILTRGGTILGASNKADPFNYLPRGGADVSAQVMRTYRTLDLDALVAIGGDGTMSIAHRLTDLGVDIVGVPKTIDNDLVGTDRTVGFDTAVSTATDAIDRIHTTAQSHHRVMIVETMGRYSGWIALHAGVASGTDVILLPEIEYEVETVADVCRDRERSGQRFTIVAVAEGARRKEGDYVVQERGDEYTDSIRLGGISRVLADQLREHLDTSIRTTVLGHMQRGGSPTAYDRTLATTLGTRAATLVAEGTTGVMVAVQNDAFTQVPLDEIAGKTRTVPLDDPLIASGLDVGTSFGVAVSDLSEAASHSKPASPIQP”, the protein production entry is “failed”. For the sequence “MPSEKQPQSKGNKMAILKLDEHLYISPQLTKADAEQIAQLGIKTIICNRPDREEESQPDFAQIKQWLEQAGVTGFHHQPVTARDIQKHDVETFRQLIGQAEYPVLAYCRTGTRCSLLWGFRRAAEGMPVDEIIRRAQAAGVNLENFRERLDNARV”, the protein production result is recorded as “not failed”. Consider “MPSFRITRKVRHSATQMYDLVADIERYPEFLPLCESLRVLRDAEGPNGTTVRVAEMGVGYKAIRERFTTRVSLDRENRKIVAEYIDGPFRHLENRWSFRDAEGGGCEVDFFITYEFKSRTLGLLMGTMFDRAFRKFTDAFEGRATAIYGVPA”, for which the protein production entry was “failed”.

“MPSGLEQCAPRCRALLQGESGVQIQGHYELKFEAVREAFAALFEDSQERGAALCIQVGGETVIDLWAGTADKDGAEAWHSDTIANLFSCTKTFTAVTALQLVAEGKLKLDAPVADYWPEFAAAGKAAITLRQLLCHQAGLPAVRELLPAQALYEWQTMVDALAAEQPWWTPGEGHGYAAITYGWLVGELIRRADGRGPGESIVARVARPLGLDFHVGLADEEFYRVAHIARGKGNMGDAAAQRLLQVTMREPDAMSTRAFTNPPSILTSTNKPEWRRMQQPAANGHGNARSLAGFYSGLLDGSLLEADMLEELTREHSLGMDKTLLTQTRFGLGCMLDQPQVANATFGLGARAFGHPGAGGSIGFADPEHDVAFGFVTNTLGPYVLMDPRAQKLVRVLSDCLLEHHHHHH”: the protein production result was “failed”.
